Source: the supplement of paper PMC10065799, “High-throughput profiling of sequence recognition by tyrosine kinases and SH2 domains using bacterial peptide display” (eLife, 2023)

target: Fes (UniProt P07332); experiment: phosphorylation enrichment, bacterial display (enrichment ratio); higher = better substrate or ligand; peptides without Tyr show the background
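Also: 11-residue human phosphosite peptides and single-mutation variants displayed on the E. coli surface, counted by deep sequencing, each peptide's frequency after selection divided by its frequency in the unselected input library; frequency after pTyr selection over input frequency; kinase dosed for 20-30% of maximal phosphorylation in three min.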

Sequence of Fes (P07332 whole entry, looked up): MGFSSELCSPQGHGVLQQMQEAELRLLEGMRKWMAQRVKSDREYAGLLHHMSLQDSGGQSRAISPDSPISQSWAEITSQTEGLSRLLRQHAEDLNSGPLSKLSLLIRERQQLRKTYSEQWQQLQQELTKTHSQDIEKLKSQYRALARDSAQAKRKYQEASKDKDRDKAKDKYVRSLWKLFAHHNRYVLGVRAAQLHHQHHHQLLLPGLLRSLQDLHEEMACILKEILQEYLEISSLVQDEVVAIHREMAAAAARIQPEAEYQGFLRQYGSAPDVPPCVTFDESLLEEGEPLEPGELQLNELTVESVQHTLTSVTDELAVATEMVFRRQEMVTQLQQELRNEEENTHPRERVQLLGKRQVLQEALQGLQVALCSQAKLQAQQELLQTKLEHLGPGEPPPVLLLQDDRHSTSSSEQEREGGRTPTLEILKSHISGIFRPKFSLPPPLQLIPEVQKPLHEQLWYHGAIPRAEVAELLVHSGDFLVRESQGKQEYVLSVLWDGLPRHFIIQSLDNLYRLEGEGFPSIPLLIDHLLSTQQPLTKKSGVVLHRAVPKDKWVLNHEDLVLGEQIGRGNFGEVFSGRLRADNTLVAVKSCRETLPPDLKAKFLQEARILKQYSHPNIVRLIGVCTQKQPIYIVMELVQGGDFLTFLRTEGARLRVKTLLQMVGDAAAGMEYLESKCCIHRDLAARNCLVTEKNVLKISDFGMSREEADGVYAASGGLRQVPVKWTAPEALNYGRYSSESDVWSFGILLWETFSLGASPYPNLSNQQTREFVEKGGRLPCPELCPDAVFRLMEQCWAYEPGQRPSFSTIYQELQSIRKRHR

Sequence	phosphorylation enrichment
ERPGVHTNVVE [F11_Y608_Y608H]	0.964
NMSRIYSTTKV [ACE_Y151_A154T]	0.443
QDRTYYERVRT [SPEN_Y633_S635R]	0.728
KMMGRYEMFAR [UPB1_Y362_T359M_YF]	0.599
IMVFVYSRVFQ [ADRB2_Y219]	1.16
LIDGFYRLTED [JAK2_Y373_A377E_YF]	1.54
KMKGDYFCFLA [YWHAG_Y130_R132C_YF]	1.18
RNIQQCNSFVS [PRKAR1A_Y373_Y373C]	1.18
GLIPAYHRFIM [NMNAT1_Y64_V67F]	0.822
CPFNLYAEQLS [HGD_Y40_YF]	1.37
RISPEYKQNEI [GJB1_Y243_L239I]	1.07
GDPTEYYITAI [IGSF22_Y501_S503I]	1.1
RLGVTYEQALA [MAP2_Y996_G991R]	1
YLQEIYNSNNQ [FGG_Y140]	1.23
LNRAGYCDALE [MTUS1_Y151_C148R]	1.12
TLQIMYGCDVG [HLA-A_Y123_I119L]	1.34
EPNSRYTYKLE [USH2A_Y3745]	0.895

Sequence	phosphorylation enrichment
EERNTYVNTTL [TEK_Y1102_K1100N]	0.83
KLADMYGGGED [CDH1_Y876]	0.79
WTAHSYRMGSA [ARHGEF7_Y785_T790A]	0.736
PGPPGYCDSSH [COL12A1_Y3043_Q3048H]	1.62
SIKDKYVTAVY [KCNH2_Y611_L615V]	0.705
TKVTFYKQPMF [GBA_Y451_D448V]	0.936
AHDGEYGAEAL [HBA1_Y25_A22D]	1.08
AELKLYSGAQT [ZAP70_Y178_R175L]	0.956
YECKWYIPLTD [BCR_Y756_D752E]	1.56
WFPANYVKLLN [ITSN1_Y1132_S1137N]	1.14
GGGMIYPLDLF	1.02
EIVHRYVELLD [AP1S3_Y87]	1.06
ISKKIYDPIHD [CTNNA3_Y614_T616P]	0.694
NIKKEYTKMVQ [PMS2_Y181_A182T]	0.492
LSQDVYEEDSF [RET_Y900_R897Q_YF]	2.43
TIMTDYNPNFC [ALK_Y1092_YF]	0.917

target: FGFR3 (UniProt P22607); experiment: as above
Sequence (P22607 whole entry, looked up): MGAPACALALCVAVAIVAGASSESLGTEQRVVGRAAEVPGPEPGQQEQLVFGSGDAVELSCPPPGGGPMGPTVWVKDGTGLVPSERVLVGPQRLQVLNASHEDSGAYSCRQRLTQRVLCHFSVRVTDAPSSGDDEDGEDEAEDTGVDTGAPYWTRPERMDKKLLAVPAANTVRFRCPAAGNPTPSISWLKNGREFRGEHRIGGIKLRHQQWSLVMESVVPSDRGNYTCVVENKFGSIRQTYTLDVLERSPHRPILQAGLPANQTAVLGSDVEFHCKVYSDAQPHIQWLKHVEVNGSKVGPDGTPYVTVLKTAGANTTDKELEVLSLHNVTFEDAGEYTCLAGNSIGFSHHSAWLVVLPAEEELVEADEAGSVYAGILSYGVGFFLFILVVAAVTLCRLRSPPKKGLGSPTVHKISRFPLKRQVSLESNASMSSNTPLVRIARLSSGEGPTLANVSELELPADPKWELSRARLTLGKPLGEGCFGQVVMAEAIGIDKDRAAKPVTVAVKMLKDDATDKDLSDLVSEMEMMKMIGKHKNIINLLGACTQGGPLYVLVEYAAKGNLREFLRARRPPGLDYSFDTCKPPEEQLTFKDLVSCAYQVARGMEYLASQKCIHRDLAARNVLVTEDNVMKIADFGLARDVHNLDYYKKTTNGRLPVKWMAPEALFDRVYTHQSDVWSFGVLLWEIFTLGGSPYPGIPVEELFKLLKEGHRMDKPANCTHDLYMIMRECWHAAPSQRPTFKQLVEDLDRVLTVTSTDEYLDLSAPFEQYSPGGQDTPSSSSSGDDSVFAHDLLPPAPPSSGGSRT

Sequence	phosphorylation enrichment
ERPGVHTNVVE [F11_Y608_Y608H]	0.754
NMSRIYSTTKV [ACE_Y151_A154T]	0.36
QDRTYYERVRT [SPEN_Y633_S635R]	0.697
KMMGRYEMFAR [UPB1_Y362_T359M_YF]	0.445
IMVFVYSRVFQ [ADRB2_Y219]	0.786
LIDGFYRLTED [JAK2_Y373_A377E_YF]	0.747
KMKGDYFCFLA [YWHAG_Y130_R132C_YF]	9.56
RNIQQCNSFVS [PRKAR1A_Y373_Y373C]	0.662
GLIPAYHRFIM [NMNAT1_Y64_V67F]	0.687
CPFNLYAEQLS [HGD_Y40_YF]	0.698
RISPEYKQNEI [GJB1_Y243_L239I]	0.836
GDPTEYYITAI [IGSF22_Y501_S503I]	2.6
RLGVTYEQALA [MAP2_Y996_G991R]	0.825
YLQEIYNSNNQ [FGG_Y140]	0.606
LNRAGYCDALE [MTUS1_Y151_C148R]	0.994
TLQIMYGCDVG [HLA-A_Y123_I119L]	0.887
EPNSRYTYKLE [USH2A_Y3745]	0.534

Sequence	phosphorylation enrichment
EERNTYVNTTL [TEK_Y1102_K1100N]	0.454
KLADMYGGGED [CDH1_Y876]	0.509
WTAHSYRMGSA [ARHGEF7_Y785_T790A]	0.438
PGPPGYCDSSH [COL12A1_Y3043_Q3048H]	0.941
SIKDKYVTAVY [KCNH2_Y611_L615V]	0.638
TKVTFYKQPMF [GBA_Y451_D448V]	0.631
AHDGEYGAEAL [HBA1_Y25_A22D]	0.645
AELKLYSGAQT [ZAP70_Y178_R175L]	0.595
YECKWYIPLTD [BCR_Y756_D752E]	1.1
WFPANYVKLLN [ITSN1_Y1132_S1137N]	0.76
GGGMIYPLDLF	0.637
EIVHRYVELLD [AP1S3_Y87]	0.673
ISKKIYDPIHD [CTNNA3_Y614_T616P]	0.529
NIKKEYTKMVQ [PMS2_Y181_A182T]	0.439
LSQDVYEEDSF [RET_Y900_R897Q_YF]	1.44
TIMTDYNPNFC [ALK_Y1092_YF]	0.549

system: c-Src; experiment: as above

Sequence	phosphorylation enrichment
ERPGVHTNVVE [F11_Y608_Y608H]	0.388
NMSRIYSTTKV [ACE_Y151_A154T]	0.431
QDRTYYERVRT [SPEN_Y633_S635R]	1.79
KMMGRYEMFAR [UPB1_Y362_T359M_YF]	0.34
IMVFVYSRVFQ [ADRB2_Y219]	0.486
LIDGFYRLTED [JAK2_Y373_A377E_YF]	0.895
KMKGDYFCFLA [YWHAG_Y130_R132C_YF]	2.94
RNIQQCNSFVS [PRKAR1A_Y373_Y373C]	0.707
GLIPAYHRFIM [NMNAT1_Y64_V67F]	0.616
CPFNLYAEQLS [HGD_Y40_YF]	0.696
RISPEYKQNEI [GJB1_Y243_L239I]	0.604
GDPTEYYITAI [IGSF22_Y501_S503I]	0.703
RLGVTYEQALA [MAP2_Y996_G991R]	1.05
YLQEIYNSNNQ [FGG_Y140]	1.84
LNRAGYCDALE [MTUS1_Y151_C148R]	0.591
TLQIMYGCDVG [HLA-A_Y123_I119L]	0.673
EPNSRYTYKLE [USH2A_Y3745]	0.501

Sequence	phosphorylation enrichment
EERNTYVNTTL [TEK_Y1102_K1100N]	0.43
KLADMYGGGED [CDH1_Y876]	0.42
WTAHSYRMGSA [ARHGEF7_Y785_T790A]	0.48
PGPPGYCDSSH [COL12A1_Y3043_Q3048H]	0.727
SIKDKYVTAVY [KCNH2_Y611_L615V]	0.49
TKVTFYKQPMF [GBA_Y451_D448V]	0.337
AHDGEYGAEAL [HBA1_Y25_A22D]	0.424
AELKLYSGAQT [ZAP70_Y178_R175L]	0.362
YECKWYIPLTD [BCR_Y756_D752E]	0.576
WFPANYVKLLN [ITSN1_Y1132_S1137N]	0.532
GGGMIYPLDLF	0.515
EIVHRYVELLD [AP1S3_Y87]	0.498
ISKKIYDPIHD [CTNNA3_Y614_T616P]	0.541
NIKKEYTKMVQ [PMS2_Y181_A182T]	0.426
LSQDVYEEDSF [RET_Y900_R897Q_YF]	0.852
TIMTDYNPNFC [ALK_Y1092_YF]	0.545

target: Fyn (UniProt P06241); experiment: as above
Sequence (P06241 whole entry, looked up): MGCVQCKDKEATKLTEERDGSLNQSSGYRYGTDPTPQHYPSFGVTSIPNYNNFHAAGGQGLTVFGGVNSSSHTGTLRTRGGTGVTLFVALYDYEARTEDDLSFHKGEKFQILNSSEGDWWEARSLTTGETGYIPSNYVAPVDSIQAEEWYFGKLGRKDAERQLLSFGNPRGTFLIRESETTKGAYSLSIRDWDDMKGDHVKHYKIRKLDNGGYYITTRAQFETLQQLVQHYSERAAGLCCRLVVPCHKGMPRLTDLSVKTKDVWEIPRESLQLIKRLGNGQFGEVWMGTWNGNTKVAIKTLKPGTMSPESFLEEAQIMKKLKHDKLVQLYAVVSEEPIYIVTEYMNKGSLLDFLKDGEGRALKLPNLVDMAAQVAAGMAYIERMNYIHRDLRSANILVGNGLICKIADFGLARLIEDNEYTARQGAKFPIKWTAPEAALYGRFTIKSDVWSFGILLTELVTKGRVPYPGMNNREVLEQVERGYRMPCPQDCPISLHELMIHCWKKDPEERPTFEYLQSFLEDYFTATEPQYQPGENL

Sequence	phosphorylation enrichment
ERPGVHTNVVE [F11_Y608_Y608H]	0.517
NMSRIYSTTKV [ACE_Y151_A154T]	0.425
QDRTYYERVRT [SPEN_Y633_S635R]	1.35
KMMGRYEMFAR [UPB1_Y362_T359M_YF]	0.368
IMVFVYSRVFQ [ADRB2_Y219]	0.445
LIDGFYRLTED [JAK2_Y373_A377E_YF]	0.66
KMKGDYFCFLA [YWHAG_Y130_R132C_YF]	2.13
RNIQQCNSFVS [PRKAR1A_Y373_Y373C]	0.506
GLIPAYHRFIM [NMNAT1_Y64_V67F]	0.535
CPFNLYAEQLS [HGD_Y40_YF]	0.642
RISPEYKQNEI [GJB1_Y243_L239I]	0.922
GDPTEYYITAI [IGSF22_Y501_S503I]	0.598
RLGVTYEQALA [MAP2_Y996_G991R]	0.77
YLQEIYNSNNQ [FGG_Y140]	1.59
LNRAGYCDALE [MTUS1_Y151_C148R]	0.537
TLQIMYGCDVG [HLA-A_Y123_I119L]	0.528
EPNSRYTYKLE [USH2A_Y3745]	0.492

Sequence	phosphorylation enrichment
EERNTYVNTTL [TEK_Y1102_K1100N]	0.446
KLADMYGGGED [CDH1_Y876]	0.484
WTAHSYRMGSA [ARHGEF7_Y785_T790A]	0.503
PGPPGYCDSSH [COL12A1_Y3043_Q3048H]	0.46
SIKDKYVTAVY [KCNH2_Y611_L615V]	0.545
TKVTFYKQPMF [GBA_Y451_D448V]	0.506
AHDGEYGAEAL [HBA1_Y25_A22D]	0.552
AELKLYSGAQT [ZAP70_Y178_R175L]	0.455
YECKWYIPLTD [BCR_Y756_D752E]	0.469
WFPANYVKLLN [ITSN1_Y1132_S1137N]	0.53
GGGMIYPLDLF	0.6
EIVHRYVELLD [AP1S3_Y87]	0.464
ISKKIYDPIHD [CTNNA3_Y614_T616P]	0.636
NIKKEYTKMVQ [PMS2_Y181_A182T]	0.378
LSQDVYEEDSF [RET_Y900_R897Q_YF]	0.882
TIMTDYNPNFC [ALK_Y1092_YF]	0.499
